The values below come from patent publication CN109988240A (ANYUAN BIOTECHNOLOGY SHANGHAI CO LTD; PHARMAB SHANGHAI …, dated 2019).

Positions count from the first letter of the chain named. A value given as a limit tells only on which side of the number the result lay.

As a reminder, the Kd is the constant that tells how readily two partners part at equilibrium. A high value points to a looser complex. What is called koff is the rate constant with which the complex falls apart. The low end stands for slow dissociation, the high end for fast dissociation. Usually kon stands for the second-order rate constant of association. A low value points to slower complex formation. As usually defined, the EC50 is the concentration at which the effect is half-maximal. High values mean weaker potency, low ones greater potency.

In assay [1] the target is T1, 人GPC-3-His(北京义翘神州生物) (human, UniProt P51654 25-559).
T1 construct: Bought His-tagged protein, coupled to Ni-NTA sensors in the BLI assay; not shown: His tag
T1 sequence (P51654 25-559 limits assumed): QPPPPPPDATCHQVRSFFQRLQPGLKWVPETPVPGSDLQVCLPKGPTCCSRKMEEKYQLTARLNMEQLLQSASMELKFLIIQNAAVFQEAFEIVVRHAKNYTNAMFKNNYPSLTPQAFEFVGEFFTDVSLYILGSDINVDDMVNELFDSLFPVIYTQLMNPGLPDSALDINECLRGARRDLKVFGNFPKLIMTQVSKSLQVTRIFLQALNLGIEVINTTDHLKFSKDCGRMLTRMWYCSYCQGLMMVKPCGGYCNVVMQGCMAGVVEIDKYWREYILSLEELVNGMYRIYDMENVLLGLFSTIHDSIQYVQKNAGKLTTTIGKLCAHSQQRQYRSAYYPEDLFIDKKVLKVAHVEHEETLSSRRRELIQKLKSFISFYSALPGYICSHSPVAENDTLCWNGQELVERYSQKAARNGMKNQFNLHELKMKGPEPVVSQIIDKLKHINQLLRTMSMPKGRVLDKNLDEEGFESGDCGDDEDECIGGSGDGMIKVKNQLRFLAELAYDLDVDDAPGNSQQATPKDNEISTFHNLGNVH
The assay can be described thus: affinity and kinetics of Table 2 (table not shown; method not named here, taken as BLI of Example 3.2).

In assay [2] the target is T1, 人GPC-3-His(北京义翘神州生物). The assay can be described thus: BLI (ForteBio Octet), human GPC-3-His on Ni-NTA sensor. (In BLI a coated tip is dipped into the sample, and binding shifts an interference pattern.)
Assay [3] concerns the target T1, 人GPC-3-His(北京义翘神州生物). Put plainly: BLI (ForteBio Octet), human GPC-3-His on Ni-NTA sensor, antibody 3.125-100 nM.
The target in assay [4] is T2, 人GPC-3抗原 (磷脂酰肌醇蛋白聚糖3, Glypican-3) (human, UniProt P51654 25-559, limits assumed).
T2 construct: The immunogen was bought from Sino Biological (北京义翘神州生物); also called GPC-3蛋白
T2 sequence (P51654 25-559 limits assumed): as above
Put plainly: indirect ELISA, GPC-3 antigen coated at 0.2 μg/ml. In general terms: An ELISA detects its analyte on a solid surface through an enzyme-linked reagent.

Assay [5] concerns the target T2, 人GPC-3抗原 (磷脂酰肌醇蛋白聚糖3, Glypican-3). The assay can be described thus: competition ELISA on coated GPC-3 (0.1 μg/ml), competitor GPC-3 antibody-HRP.
For assay [6] the target is unchanged. Put plainly: indirect ELISA on coated GPC-3, goat anti-human IgG-HRP detection.

B1: 人源化抗体AB13E3 (antibody, V domains shown)
VH: QVQLVQSGAEVKKPGASVKVSCKASGYTFTDYEMHWVKQAPGQGLEWIGAIDPQTGNTAFNQKFKGRVTLTRDKSSSTVYMELSSLRSEDTAVYYCTRFYSLTYWGQGTLVTVSS
VL: DVLMTQSPLSLPVTLGQPASISCRSSQSIVHSNGNTYLQWYLQRPGQSPKLLIYKVSNRFSGVPDRFSGSGSGTYFTLKISRVEAEDVGVYYCFQGSHFPYAFGGGTKVEIK
notes: Humanized from GPC3#4 by CDR grafting; detected with goat anti-human IgG
As to B1, the Kd in the assay with 人GPC-3-His(北京义翘神州生物) [1] is less than 0.01 nM.

B2: 鼠单克隆抗体GPC3#4(杂交瘤细胞株DWX-1分泌) (antibody, V domains shown)
VH: QVQLQQSGAELVRPGAPVTLSCKASGYTFTDYEMHWVKQTPVNGLEWIGAIDPQTGNTAFNQKFKGKAILTADKSSSTAYMEVRSLTSEGSAVYYCTRFYSLTYWGQGTLVTVSA
VL: B1 VL with S7V, T14S, Q17D, P18Q, R44K, V88L, V109L
notes: Mouse antibody purified from hybridoma DWX-1; also called 鼠源抗体GPC3#4; 鼠单抗GPC3#4
In the assay with 人GPC-3-His(北京义翘神州生物) [2], B2 registered a Kd of less than 0.01 nM. In the assay with 人GPC-3-His(北京义翘神州生物) [3], this molecule came in with a Kd of 0.00107 nM, a koff of 1e-07 s⁻¹ and a kon of 624000 M⁻¹ s⁻¹. In assay [4], this molecule showed an EC50 of approximately 0.01 mg/L.

B3: 人源化抗体AB13E1 (antibody, V domains shown)
VH: B1 VH with K38R, I48M, A50I, A59S, F60Y, N61A, K65Q, L70M, K74T, S76T
VL: B1 VL with L3V, Q39N, Y41F, L42Q, K50R, L51R, F60D, Y75D
notes: Humanized from GPC3#4 by CDR grafting
Turning to B3, the Kd with 人GPC-3-His(北京义翘神州生物) [1] is less than 0.01 nM.

B4: 人源化抗体AB13E4 (antibody, V domains shown)
VH: B1 VH with K12V, V20L, A40T, V68A, V79A, L83V, D90G
VL: B1 VL with R44K, V109L
notes: Humanized from GPC3#4 by resurfacing; detected with goat anti-human IgG
With B4, the EC50 in assay [5] lay within 0.1 to 1 mg/L; in assay [6], 0.001 to 0.01 mg/L. This molecule also yielded a Kd with 人GPC-3-His(北京义翘神州生物) [1] of less than 0.01 nM.

B5: 人源化抗体AB13E2 (antibody, V domains shown)
VH: B1 VH with K38R, A59S, F60Y, N61A, K65Q, L70M, K74T, S76T
VL: B1 VL with L3V, Q39N, Y41F, L42Q, F60D, Y75D, V109L
notes: as for B3
Molecule B5 yielded a Kd with 人GPC-3-His(北京义翘神州生物) [1] of less than 0.01 nM.

B6: 人源化抗体AB13E5 (antibody, V domains shown)
VH: QVQLVQSGAEVKKPGASVTLSCKASGYTFTDYEMHWVRQAPGQGLEWMGIIDPQTGNTSYAQKFQGRVTMTRDTSTSTVYMELSSLRSEGSAVYYCTRFYSLTYWGQGTLVTVSS
VL: B1 VL with L3V, Q17D, P18Q, Q39N, Y41F, L42Q, K50R, L51R, F60D, Y75D
notes: as for B3
The molecule B6 gave a Kd in the assay with 人GPC-3-His(北京义翘神州生物) [1] of less than 0.01 nM.
